In PMC8776815, “Rational design of a helical peptide inhibitor targeting c-Myb–KIX interaction” (Scientific Reports, 2022):
No end group written: not given here.

How the values were obtained:
CBP KIX (Mus musculus) = CBP KIX (Mus musculus) (UniProt P45481); conditions: cited from earlier work
KIX = conditions: previous studies; read-out: Kd (dissociation constant for KIX binding); cited from earlier work
Text: Although the c-Myb TAD is intrinsically disordered, the region of residues 284–315, called Myb32, has a high helical propensity. […] Moreover, Myb32 is known to bind KIX by a conformational selection mechanism. This information may provide a clue to improve the binding affinity to KIX[38],[40]. Therefore, Myb32 is a suitable template for designing peptide inhibitors.

[1] = biological target: T1, KIX domain of CBP (c-Myb/pKID site) (Mus musculus, UniProt P45481); assay: Isothermal titration calorimetry (ITC) of KIX binding of Myb32 peptides; conditions: 20 mM Tris-acetate pH 7.0, 50 mM NaCl, 30 °C, 600 μM Myb32 into 45 µM KIX + 90 µM MLL28, mean ± standard error, more than two measurements, read-out: Kd (dissociation constant for KIX binding)
T1 construct: KIX (residues 586–672 of mouse CBP); 6xHis-tag with thrombin cleavage site (MGHHHHHHSSGLVPR) (N); made in house; host or cells: E. coli BL21(DE3)pLysS for KIX; E. coli BL21(DE3) for MLL28
Text: Next, we performed isothermal titration calorimetry (ITC) measurements to investigate the KIX-binding affinity of the peptides. Although Myb32 primarily binds the c-Myb/pKID site on KIX, previous studies have shown that it also binds the MLL site, located opposite the c-Myb/pKID site[38]. Therefore, to prevent the secondary binding of Myb32, we conducted all ITC experiments in the presence of the MLL TAD peptide (residues 2842–2869, called MLL28) with a two-fold excess of MLL over KIX[38].
ITC measurements were conducted using a MicroCal iTC200 (Malvern Panalytical Ltd., Malvern, United Kingdom) in ITC buffer at 30 °C. All samples were dialyzed sufficiently before the experiments. 600 μM Myb32 was titrated into the cell containing 45 µM KIX and 90 µM MLL28. The data were analyzed using Origin software (OriginLab Co., Northampton, MA, USA) to obtain the Kd, stoichiometry of binding (N), and enthalpy change upon binding (ΔH). The Gibbs free energy change (ΔG) and entropy change (ΔS) upon binding were obtained as follows:3 ΔG=-RTln1/Kd 4 ΔS=ΔH-ΔG/T where R is the gas constant, and T is the temperature.

[2] = biological target: T2, KIX domain of CBP in the presence of the MLL TAD peptide MLL28 (two-fold excess of MLL28 over KIX) (mouse | human, UniProt P45481 586-672; Q03164 2842-2869); assay: ITC; 600 uM Myb32 peptide titrated into the cell with 45 uM KIX and 90 uM MLL28; 20 mM Tris-acetate pH 7.0, 50 mM NaCl; 30 °C; conditions: both partners purified
T2 construct: KIX domain, residues 586-672 of mouse CBP; single Tyr residue attached at the C-terminus of MLL28 for concentration determination; A Gly left at the N-terminus after thrombin cleavage is stated only for Myb32, it is likely on MLL28 too; also called KIX and MLL28; source: E. coli BL21(DE3)pLysS (KIX) and BL21(DE3) (MLL28), each purified; 45 uM KIX and 90 uM MLL28 together in the ITC cell; not …
T2 sequence (P45481 586-672, chain 1 of 2): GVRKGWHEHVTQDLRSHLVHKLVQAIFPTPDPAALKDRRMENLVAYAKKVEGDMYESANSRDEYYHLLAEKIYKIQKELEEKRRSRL
T2 sequence (Q03164 other isoform, or with tags, fused parts or gaps, chain 2 of 2): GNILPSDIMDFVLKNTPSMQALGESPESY

[3] = biological target: T3, KIX domain of CREB-binding protein (residues 586-672 of mouse CBP) without a His-tag (mouse, UniProt P45481 586-672); assay: SPR; competitive binding assay (OpenSPR, localized SPR); His-tag-GB1-Myb32 wild type immobilised by amine coupling; 1 uM KIX without His-tag injected alone or mixed with inhibitor (1 nM to 300 uM); 20 mM sodium phosphate pH 7.0, 300 mM NaCl; 30 °C; conditions: both partners purified
T3 construct: KIX domain, residues 586-672 of mouse CBP; the thrombin site ends in LVPR followed by G586 of KIX; also called KIX without a His-tag; source: E. coli BL21(DE3)pLysS, purified (Ni-NTA, thrombin cleavage, size exclusion chromatography); not shown: His6, N-terminal, cleaved
T3 sequence (P45481 586-672): as the sequence (P45481 586-672, chain 1 of 2) above

[4] = biological target: T2, KIX domain of CBP in the presence of …; assay: ITC; under the conditions of the SPR measurement: 20 mM sodium phosphate pH 7.0, 300 mM NaCl; in the presence of MLL28 (all ITC experiments); conditions: both partners purified

c-Myb TAD TAD, sequence (P06876 275-327): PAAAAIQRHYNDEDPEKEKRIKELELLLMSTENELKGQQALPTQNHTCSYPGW
CBP KIX (Mus musculus), sequence (P45481 583-668): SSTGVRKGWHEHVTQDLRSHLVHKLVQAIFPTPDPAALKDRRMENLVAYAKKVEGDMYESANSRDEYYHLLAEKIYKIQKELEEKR

Molecule	Kd [2] [nM]	dH [2] [kcal mol^–1]	stoichiometry N [2]	also measured
c-Myb TAD TAD (from UniProt P06876)	–	–	–	Kd (CBP KIX (Mus musculus)): 500 nM
c-Myb TAD full length: full-length transactivation domain of c-Myb (residues 275–327), intrinsically disordered (PAAAAIQRHYNDEDPEKEKRIKELELLLMSTENELKGQQVLPTQNHTCSYPGW; transactivation domain; UniProt P10242 275-327, looked up, fragment)	–	–	–	Kd (KIX): 500 nM
GYNDEDPEKERRIKELELLLMSTENELKGQQAL [K293R]	–	–	–	Kd [1]: 220 ± 10 nM
GYNDEDPEKEKRIKELELLLMSTENELKGQQAL [WT]	–	–	–	Kd [1]: 220 ± 10 nM
GYNDEDPEKEKRIKELELLLMSTENELKGQQAL (additional Gly residue left at the N-terminus after thrombin cleavage; Myb32, residues 284-315 of mouse c-Myb; 33-residue peptide (Gly + 32 residues); also called WT; wild-type Myb32; source: E. coli BL21(DE3), purified (Ni-NTA, thrombin cleavage on the column, DEAE anion exchange); not shown: His6, N-terminal, cleaved; GB1, N-terminal, cleaved) [Myb32 wild type (residues 284-315 of mouse c-Myb, transactivation domain fragment)]	220	-6.49	0.97	IC50 [3]: 10900 nM; Kd [4]: 510 nM; dH [4]: -13.8 kcal mol^–1; stoichiometry N [4]: 0.99
GYNDEDPEKLKRIKELELLLMSTENELKGQQAL (additional Gly residue left at the N-terminus after thrombin cleavage; Myb32, residues 284-315 of mouse c-Myb; source: E. coli BL21(DE3), purified (Ni-NTA, thrombin cleavage on the column, DEAE anion exchange); not shown: His6, N-terminal, cleaved; GB1, N-terminal, cleaved) [Myb32 E292L]	480	-5.45	0.92	–
GYNDEDPERERRIKELELLLMSTENELKGQQAL (additional Gly residue left at the N-terminus after thrombin cleavage; Myb32, residues 284-315 of mouse c-Myb; source: E. coli BL21(DE3), purified (Ni-NTA, thrombin cleavage on the column, DEAE anion exchange); not shown: His6, N-terminal, cleaved; GB1, N-terminal, cleaved) [Myb32 K291R/K293R]	140	-7.31	0.84	–
GYNDEDPERERRIRELELLLMSTENELKGQQAL (additional Gly residue left at the N-terminus after thrombin cleavage; Myb32, residues 284-315 of mouse c-Myb; also called RRR Myb32 mutant; source: E. coli BL21(DE3), purified (Ni-NTA, thrombin cleavage on the column, DEAE anion exchange); not shown: His6, N-terminal, cleaved; GB1, N-terminal, cleaved) [Myb32 K291R/K293R/K296R triple mutant (RRR)]	80	-7.57	0.99	IC50 [3]: 5600 nM; Kd [4]: 260 nM; dH [4]: -14.8 kcal mol^–1; stoichiometry N [4]: 0.99
GYNDEDPEREKRIRELELLLMSTENELKGQQAL (additional Gly residue left at the N-terminus after thrombin cleavage; Myb32, residues 284-315 of mouse c-Myb; source: E. coli BL21(DE3), purified (Ni-NTA, thrombin cleavage on the column, DEAE anion exchange); not shown: His6, N-terminal, cleaved; GB1, N-terminal, cleaved) [Myb32 K291R/K296R]	120	-7.56	0.9	–
GYNDEDPEKERRIKELELLLMSTENELKGQQAL (additional Gly residue left at the N-terminus after thrombin cleavage; Myb32, residues 284-315 of mouse c-Myb; source: E. coli BL21(DE3), purified (Ni-NTA, thrombin cleavage on the column, DEAE anion exchange); not shown: His6, N-terminal, cleaved; GB1, N-terminal, cleaved) [Myb32 K293R]	–	-7.03	0.94	–
GYNDEDPEKERRIRELELLLMSTENELKGQQAL (additional Gly residue left at the N-terminus after thrombin cleavage; Myb32, residues 284-315 of mouse c-Myb; source: E. coli BL21(DE3), purified (Ni-NTA, thrombin cleavage on the column, DEAE anion exchange); not shown: His6, N-terminal, cleaved; GB1, N-terminal, cleaved) [Myb32 K293R/K296R]	130	-7.31	0.96	–
GYNDEDPEKEKRIRELELLLMSTENELKGQQAL (additional Gly residue left at the N-terminus after thrombin cleavage; Myb32, residues 284-315 of mouse c-Myb; source: E. coli BL21(DE3), purified (Ni-NTA, thrombin cleavage on the column, DEAE anion exchange); not shown: His6, N-terminal, cleaved; GB1, N-terminal, cleaved) [Myb32 K296R]	160	-6.3	0.96	–
YNDEDPEKEKRIKELELLLMSTENELKGQQAL (Myb32, residues 284-315 of mouse c-Myb; 6xHis-tag, B1 domain of protein G and the thrombin cleavage site stand before Myb32; coupled to the chip by amine coupling; also called immobilized wild-type Myb32; His-tagged Myb32 protein; source: E. coli BL21(DE3), purified (Ni-NTA, eluted with imidazole); not shown: His6, N-terminal, kept; GB1, N-terminal, kept) [His-tag-GB1-Myb32 (wild-type Myb32 with a His-tag and GB1)]	–	–	–	binding result [3]: binds
GYNDEDPEREKRIKELELLLMSTENELKGQQAL (additional Gly residue left at the N-terminus after thrombin cleavage; Myb32, residues 284-315 of mouse c-Myb; source: E. coli BL21(DE3), purified (Ni-NTA, thrombin cleavage on the column, DEAE anion exchange); not shown: His6, N-terminal, cleaved; GB1, N-terminal, cleaved) [Myb32 K291R]	210	-6.46	0.97	–
